Data on 40 sequences can be found in the nanobody polyreactivity screen of Harvey et al. (2022).

The nature of this data set: yeast display, Sf9 membrane polyspecificity reagent, FACS + sequencing; frameworks hold sequencing errors. Summed up:
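A synthetic nanobody library was expressed on Saccharomyces cerevisiae BJ5465 by galactose induction for 36–48 hours. The library was stained for 1 hour at 4 °C with 10% biotinylated, detergent-solubilized Sf9 membrane reagent and enriched with streptavidin microbeads before FACS. Low and high (top ~1%) gates were set on anti-HA fluorescence for expression and streptavidin fluorescence for reagent binding, and each polyreactivity label reflects the gate of origin.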
With “QVQLVESGGGLVQAGGSLRLSCAASGYIFHRYVMGWYRQAPGKERELVASISWSGGSTYYADSVKGRFTISRDNAKNTVYLQMTSLKPEDTAVYYCGALSPYRRGYYWGQGTQVTVSS”, the “polyreactivity (PSR sort gate)” value is recorded as “high polyreactivity”.

Regarding “QVQLVESGGGLVQAGGSLRLSCAASGYIFKFYTMGWYRQAPGKERELVAAISRSGGSTYYADSVKGRFTISRDNAKNTVYLQLNSLKPEDTAVYYCARPRTRQGDYWGQGSQVTVSS”, the “polyreactivity (PSR sort gate)” value is recorded as “high polyreactivity”.

Consider “QVQLVESGGGLVQAGGSLRLSCAASGYIFKKYAMGWYRQAPGKEREFVAAISISGGRTYYADSVKGRFTISRDNAKNTVYLQMNSLKPEDTAVYYCNKVHYGRRHSYSGAIYGEDYWGQGTQVTVSS”, for which the “polyreactivity (PSR sort gate)” value is on record as “high polyreactivity”.

Regarding “QVQLVESGGGLVQAGGSLRLSCAASGYIFKSNVMGWYRQAPGKERELVAAITTDGSTYYADSVKGRFTISRDNAKNTVYLQMNSLKPEDTAVYYCAAGKAYWYARKPYARYYYWGQGTQVTVSS”, the “polyreactivity (PSR sort gate)” value is reported as “high polyreactivity”.

“QVQLVESGGGLVQAGGSLRLSCAASGYIFLRNAMGWYRQAPGKERELVAAIRRTGGSTYADSVKGRFTISRDNAKNTVYLQMNSLKPEDTAVYYCNAGYLLYYDYHLFYWVQGTQVTVSS”: the “polyreactivity (PSR sort gate)” value is reported as “low polyreactivity”.

“QVQLVESGGGLVQAGGSLRLSCAASGYIFLTNAMGWYRQAPGKERELVAAISVSGGRTYYADSVKGRFTISRDNAKNTVYLQMNSLKPEDTAVYYCNTLLTYGYDYWGQGTQVTVSS”: the “polyreactivity (PSR sort gate)” value is “low polyreactivity”.

Turning to “QVQLVESGGGLVQAGGSLRLSCAASGYIFLYSTMGWYRQAPGKERELVAAITIGGGTYYADSVKGRFTISRDNAKNTVYLQMNSLKPEDTAVYYCNADYASYYRYSRPLEMNYWGQGTQVTVSS”, the “polyreactivity (PSR sort gate)” value is “low polyreactivity”.

“QVQLVESGGGLVQAGGSLRLSCAASGYIFNKYVMGWYRQAPGKERELVAAISASGGSTYYADSVKGRFTISRDNAKNTVYLQMNSLKPEDTAVYYCAATLYRRMDYWGQGTEVTVSS”: the “polyreactivity (PSR sort gate)” value is “high polyreactivity”.

Turning to “QVQLVESGGGLVQAGGSLRLSCAASGYIFPKNAIGWYRQAPWKERELVAAITGSGGSTYYADSVKGRFTISRDNAKNTVYLQMNSLKPEDTAVYYCAKRSWIEYDYWGQGTQVTVSS”, the “polyreactivity (PSR sort gate)” value is given as “low polyreactivity”.

Consider “QVQLVESGGGLVQAGGSLRLSCAASGYIFPSNTMGWSIQAPGKERELVATISRSGVSTYYADSVKGRFTISRDYAKNTVYLHMYSLKPDDTAVYYCAASTVYYYRSKWLSSFDYWGQGTQVTVSS”, for which the “polyreactivity (PSR sort gate)” value was “low polyreactivity”.

For “QVQLVESGGGLVQAGGSLRLSCAASGYIFRFNAMGWYRQAPGKERELVAVITSGARTYYADSVKGRFTISRDNAKNTVYLQMNSLKPEDTAVYYCNAGARRYLYDYWGQGTQVTVSS”, the “polyreactivity (PSR sort gate)” value is “low polyreactivity”.

Turning to “QVQLVESGGGLVQAGGSLRLSCAASGYIFRGYVMGWYRQAPGKERELVAAITSRGDSTYYADSVKGRFTISRDNAKNTVYLQMNSLKPEDTAVYYCNAVHYYVEYDYWGQGTEVTVSS”, the “polyreactivity (PSR sort gate)” value is listed as “high polyreactivity”.

For the sequence “QVQLVESGGGLVQAGGSLRLSCAASGYIFRLNAMGWYRQAAGKERELLAGISTGGRTNYADSVKGRFTISRDNAKNTVNLQMNSLTPEDTAVYYCAAAWHTASWVGSDSLGGGYWGQGTQVTVSS”, the “polyreactivity (PSR sort gate)” value is listed as “low polyreactivity”.

Take “QVQLVESGGGLVQAGGSLRLSCAASGYIFRLYTMGWYRQAPGKERELVAAISYSGGSTYYADSVKGRFTISRDNAKNTVYLQMNSLKPEDTAVYYCAAEDWRGYRWIRYGYWGQGTQVTVSS”: the “polyreactivity (PSR sort gate)” value was “low polyreactivity”.

In the case of “QVQLVESGGGLVQAGGSLRLSCAASGYIFSANAMGWYRQAPGKEREFVAAISSTGGSTYYADSVKGRFTISRDNAKNTVYLQMNSLKPEDTAVYYCAAYIRRYFHYDYWGQGTQVTVSS”, the “polyreactivity (PSR sort gate)” value is given as “high polyreactivity”.

Regarding “QVQLVESGGGLVQAGGSLRLSCAASGYIFSGYAMGWYRQAPGKERELVAAISSSGGRTYYADSVKGRFTISRDNAKNTVYLQMNSLKPEDTAVYYCATVPRKTPGNAELDYWGQGTQVTVSS”, the “polyreactivity (PSR sort gate)” value is reported as “high polyreactivity”.

As to “QVQLVESGGGLVQAGGSLRLSCAASGYIFSLNGMGWYRQEPVKERELVAAITVSGGRTYYADSVKGRFTISRDNAKNTVYLQMNSLKPEDTAVYYCAKRGKYSYWPYYKYDYWGQGTQVTVSS”, the “polyreactivity (PSR sort gate)” value is listed as “high polyreactivity”.

“QVQLVESGGGLVQAGGSLRLSCAASGYIFSYNAMGWYRQAPGKERELVAAITGDSGTYYADSVKGRFTISRDNAKNTVYLQMNSLKPEDTAVYYCATDPYIFPVFYDLYWGYNYWGQGTQVTVSS”: the “polyreactivity (PSR sort gate)” value is “low polyreactivity”.

For “QVQLVESGGGLVQAGGSLRLSCAASGYIFTRNAMGWYRQAPGKDRELVAAISQGGGSTYYADSVKGRFTISRDNAKNTVYFQMNSLKPEDTAVYYCAAYFYTFVGYDYWGQGTQVTVSS”, the “polyreactivity (PSR sort gate)” value is “low polyreactivity”.

As to “QVQLVESGGGLVQAGGSLRLSCAASGYIFVKNAMGWYRQAPGKERELVAAISTRGGRTYYADSVKGRFTISRDNAKNTVYLQMNSLKPEDTAVYYCAAVHQTSYYDANSYGYWGQGTQVTVSS”, the “polyreactivity (PSR sort gate)” value is reported as “high polyreactivity”.

As to “QVQLVESGGGLVQAGGSLRLSCAASGYIFVRNAMGWYRQAPGKERELVAAISGSGGSTYYADSVKGRFTISRDNAKNSVYLQMNSLKPEDTAVYYCAARRYGYRYDQPYSNDYWGLGTQVTVSS”, the “polyreactivity (PSR sort gate)” value was “low polyreactivity”.

Regarding “QVQLVESGGGLVQAGGSLRLSCAASGYIFYAYAMGWYRQAPGKERELVAAISSGGGRTYYADSVKGRFTISRDNAKNTVDLQRNSLKPEDTAVYYCAARRRDRGEYYYWGQGTQVTVSS”, the “polyreactivity (PSR sort gate)” value is on record as “high polyreactivity”.

For the sequence “QVQLVESGGGLVQAGGSLRLSCAASGYIFYDNAMGWYRQAPGKERELVAAISASGGDTYYADSVKGRFTISRDNAKNTVYLQMNSLKPEDTAVYYCAADLITYAMEYWGQGTEVTVSS”, the “polyreactivity (PSR sort gate)” value is “low polyreactivity”.

Take “QVQLVESGGGLVQAGGSLRLSCAASGYIFYNYAMGWYRQAPGKERELVAAISRRGGSTYYADSVKGRFTISRDNAKNTVYLQMNSLKPEDTAVYYCAKTPYAHPNYYTDYYWGQGTQVTVSS”: the “polyreactivity (PSR sort gate)” value was “high polyreactivity”.

For the sequence “QVQLVESGGGLVQAGGSLRLSCAASGYIIDNNSMAWYRQAPGKERELVASNTNSAGSTSYADSVKGRFTISRDNAKNTVYLQMNSLKPEDTAVYYCAAKRYHYFFPYSRRGAYGYWGQGTQVTVSS”, the “polyreactivity (PSR sort gate)” value is recorded as “high polyreactivity”.

As for “QVQLVESGGGLVQAGGSLRLSCAASGYILPKNTMGWYRQAPGKERELVAAISWSGGSTFYADSVKGRFTISRDNAKNTVYLQMNSLKPEDTAVYYCAADRYWSWYYRYDYWGQGTQVTVSS”, the “polyreactivity (PSR sort gate)” value is reported as “low polyreactivity”.

On to “QVQLVESGGGLVQAGGSLRLSCAASGYILPKNTMGWYRQAPGKERESVAVITYSGGSTYYADSVKGRFTISRDNAKNTVYLQMNSLKPEDTAVYYCAADKWYYVRYPTDAYSKFDYWGQGTQVTVSS”, for which the “polyreactivity (PSR sort gate)” value is recorded as “low polyreactivity”.

For “QVQLVESGGGLVQAGGSLRLSCAASGYILRSNAMGWYRQAPGKEREFVAAITYSGGSTYYADSEKGRFTISLDNAMNSVYLQMNSLKPEDTAVYYCAKTTRYQRGYGYWGQGTQVTVSS”, the “polyreactivity (PSR sort gate)” value is on record as “low polyreactivity”.

For “QVQLVESGGGLVQAGGSLRLSCAASGYILWNAMGWYRQAPGKERELVAAIRFRGGSTSYADSVKGRFTISRDNAKNTVYLQMNSLKPEDTAVYYCNARWWVIRPYQRHDYWGQGTQVTVSS”, the “polyreactivity (PSR sort gate)” value was “low polyreactivity”.

“QVQLVESGGGLVQAGGSLRLSCAASGYISSYNPMGWSRQAPGKERELVASITRGGSTYYADSVKGRFTISRDNAKNTVYLQMNSLKPEDTAVYYCAADTLRQYDYEYWGQGTQVTVSS”: the “polyreactivity (PSR sort gate)” value was “high polyreactivity”.

Consider “QVQLVESGGGLVQAGGSLRLSCAASGYIWCYAMGWDRQAPGKEWELVAAISWGGGSTYYADSVKGRFTISRDNAKNTVYLQMNSLKREDTAVYYCAAVDAVGPTSHAMYYWGLGTQVTVSS”, for which the “polyreactivity (PSR sort gate)” value is given as “low polyreactivity”.

In the case of “QVQLVESGGGLVQAGGSLRLSCAASGYNFFSYAKGWYRQPPGKERELVAAISRGGRTYYADSVKGRFTISRDNAKNTVYLQMKILKPEDTAVYYCNAVSTPGKYGYWGQGTQVTVSS”, the “polyreactivity (PSR sort gate)” value was “high polyreactivity”.

With “QVQLVESGGGLVQAGGSLRLSCAASGYSFYYNAMGWYRQAPGKERELVAAISYTGGSTYYADSVKGRFTISRDNAKNTVYLQMNSLKPEDTAVYYCAAEYYTYVSDNYQHYGYWGQGTQVTVSS”, the “polyreactivity (PSR sort gate)” value was “low polyreactivity”.

Regarding “QVQLVESGGGLVQAGGSLRLSCAASGYTCDANAMGWYRQATGKERELVASISSISDSTDYADAVKGRITISRDNATNTVYLQMKILKPEDTAVYYCARSDVKPGRQERDYWGQGTQVTVSS”, the “polyreactivity (PSR sort gate)” value is “low polyreactivity”.

As for “QVQLVESGGGLVQAGGSLRLSCAASGYTFAGYAMGWYRQAPGKERELVAAISRNGGTTYYADSVKGRFTISRDNAKNTVYLQMNSLKPEDTADYYCNKRGWYSVYRRDYWGQGTQVTVSS”, the “polyreactivity (PSR sort gate)” value is recorded as “high polyreactivity”.

Consider “QVQLVESGGGLVQAGGSLRLSCAASGYTFANNAMGWYRQAPGKERELVAVITWSGDSTYYADSVKGRFTISRDNAKNTVYLQMNSQKAEDTAVYYCAREFSDGLSGKFDYWGQGTQLTVSS”, for which the “polyreactivity (PSR sort gate)” value was “low polyreactivity”.

Regarding “QVQLVESGGGLVQAGGSLRLSCAASGYTFAPNTMGWYRQAPGKERELVATITVSGGITYADSVKGRFTISRDNAKNTVYLQMNSLKPEDTAVYYCAARTPGWYLPRDYWGQGTQVTVSS”, the “polyreactivity (PSR sort gate)” value is “low polyreactivity”.

Regarding “QVQLVESGGGLVQAGGSLRLSCAASGYTFATYTMGWYRQAPGKERELVAAITGGGGSTSYADSVKGRFTISRDNAKNTVYLQMNSLKLEDTAVYYCNAGISVDYSLEKYDYWGQGTQVTVSS”, the “polyreactivity (PSR sort gate)” value is listed as “low polyreactivity”.

With “QVQLVESGGGLVQAGGSLRLSCAASGYTFAWYAMGWYRQAPGKERELVAAITVSGGSTYYADSVKGRFTISRDNAKNTVYVQMNSLKPEDTAVYYCAADYAPLDLYQDSTVYSSGDYWGQGTQVTVSS”, the “polyreactivity (PSR sort gate)” value was “low polyreactivity”.

As for “QVQLVESGGGLVQAGGSLRLSCAASGYTFAWYTMGWYRQAPGKERELVAAISASGVRTYYADSVKGRFTISRDNAKNTVYLQMNSLKPQDTAVYYCNRVYSTSRITQYEFDYWGQGTQVTVSS”, the “polyreactivity (PSR sort gate)” value is listed as “low polyreactivity”.
